Measurements as given in US20230331840A1 (FAPON BIOTHERAPY, published 2023).

Biological target: T1, Human CD22 extracellular segment conjugated His label (human, UniProt P20273 20-687)
T1 construct: extracellular domain; Bought recombinant protein; also called h CD22-His; hCD22-His; not shown: His label
Assay: ELISA, h CD22-His coated at 2 µg/ml, antibody in 3-fold dilutions
Source text: M971 was a 7 epitope humanized CD22 antibody. The specific sequence and information can be found publicly. The antibody was synthesized by Shenzhen FeipengBiological therapy Co., LTD.

Row | binding result | Binder
1 | binds | CD22 antibody FC2-201 (antibody, IgG2b, V domains shown, Mouse hybridoma monoclonal antibody) VH: KVQLQQSGAGLVKPGASVKLSCKASGYTFTDSILHWLMQRSGQGLEWIGWFYPGSGSIKYNEKFKDKATLTADKSSSTVYMELSRLTSEDSAFYFCARHEDGYDGFAYWGQGTLVTVSA VL: ENVLTQSPAIMSASLGEKVTMSCRASSSVNYIFWYQQKSDASPKLWIYYTSNLAPGVPARFSGSGSGNSYSLTISSMEGEDAATYYCQQFTSSPFTFGSGTKLEIKR
2 | binds | CD22 antibody FC2-117 (antibody, IgG1, V domains shown, Mouse hybridoma monoclonal antibody) VH: DVQLQESGPGLVKPSQSLSLTCSVTGYSITSGYYWNWIRQFPGNKLEWMGYISYDGSNNYNPSLKNRISITRDTSKNQFFLKLNSVTTEDTATYYCTKGGYGYYFDYWGQGTTLTVSS VL: DIQMTQSPASLSASVGETVTITCRASGNIHNYLAWYQQKQGKSPQLLVYNAKTLADGVPSRFSGSGSGTQYSLKINSLQPEDFGSYYCQHFWSTPPTFGGGTKLEIKR
